Test results from patent publication US11673916B2, “Neuroprotective peptides and methods of their use” (University of Pittsburgh—Of the Commonwealth System of …, priority 2020, dated 2023).

Tests used:
[1] = biological target: T1, Kv2.1 surface clusters (Rattus norvegicus, UniProt P15387); assay: Kv2.1 surface cluster density in live Kv2.1-GFP-transfected cortical neurons treated with TAT-linked peptides; assay type: cell-based; conditions: 10 μM
T1 construct: expressed in transfected cells; host or cells: primary rat cortical neurons (E16-17 Sprague-Dawley), Lipofectamine 2000
T1 sequence (P15387 1-857): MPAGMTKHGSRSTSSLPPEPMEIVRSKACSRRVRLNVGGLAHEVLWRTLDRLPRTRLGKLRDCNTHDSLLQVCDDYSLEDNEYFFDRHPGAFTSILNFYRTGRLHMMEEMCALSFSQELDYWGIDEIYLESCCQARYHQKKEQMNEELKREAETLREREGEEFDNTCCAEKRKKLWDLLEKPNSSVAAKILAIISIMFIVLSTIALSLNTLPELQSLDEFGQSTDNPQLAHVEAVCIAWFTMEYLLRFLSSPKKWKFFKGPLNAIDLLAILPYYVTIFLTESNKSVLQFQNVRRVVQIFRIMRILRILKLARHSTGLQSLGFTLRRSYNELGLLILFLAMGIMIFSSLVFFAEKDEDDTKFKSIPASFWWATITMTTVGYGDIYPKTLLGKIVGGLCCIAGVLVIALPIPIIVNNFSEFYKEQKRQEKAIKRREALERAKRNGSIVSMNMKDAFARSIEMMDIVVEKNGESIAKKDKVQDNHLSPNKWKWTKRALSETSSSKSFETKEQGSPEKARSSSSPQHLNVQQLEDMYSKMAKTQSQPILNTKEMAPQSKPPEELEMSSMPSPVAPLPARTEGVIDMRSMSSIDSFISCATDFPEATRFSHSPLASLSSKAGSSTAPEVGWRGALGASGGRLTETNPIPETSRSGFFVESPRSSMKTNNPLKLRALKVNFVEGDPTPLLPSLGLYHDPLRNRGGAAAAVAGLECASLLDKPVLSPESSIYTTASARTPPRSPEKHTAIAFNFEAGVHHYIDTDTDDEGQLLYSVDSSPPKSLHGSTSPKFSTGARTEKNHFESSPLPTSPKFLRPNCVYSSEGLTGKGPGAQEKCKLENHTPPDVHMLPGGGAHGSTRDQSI
Method: In vitro experiments utilized primary cortical neuronal cultures prepared from embryonic day 16-17 Sprague-Dawley rats of either sex in a protocol described previously (McCord et al., J Physiol (Lond). 592: 3511-3521, 2014). Timed-pregnant rats (Charles River Laboratories, Wilmington, Mass.) were sacrificed by CO2 inhalation. Embryonic cortices were dissociated with trypsin (0.6 mg/mL) and cells plated in sterile 6-well plates on poly-L-ornithine-coated glass coverslips at a density of 670,000 cells per well. Cytosine arabinoside (1-2 μM) was utilized to inhibit non-neuronal proliferation on day 14 in vitro (DIV); cultures were utilized at 21-25 DIV.
; Invitrogen, Carlsbad, Calif.). […]; Thermo Fisher Scientific, Waltham, Mass.). […]. Cultures were utilized 18-24 hours following transfection. cDNA amounts for each transfection experiment are described below for each figure. FIG. 1: 0.375 μg/well Kv2.1-GFP plasmid, 0.495 μg/well pcDNA3 vector plasmid, and 0.63 μg/well of either DP-1 or Sc-1, or Kv2.2 CT-expressing plasmid. FIGS. 2, 8, 9, 10, 12: 0.375 μg/well Kv2.1-GFP plasmid, 0.15 μg/well tdTomato plasmid (from Gerhart Ryffel; Addgene plasmid #30530), and 0.975 μg/well pcDNA3 vector plasmid.
To analyze Kv2.1 distribution in live primary cortical neurons, cells were transfected with both a tdTomato construct and a GFP-tagged Kv2.1 construct (O'Connell, et al., J Neurosci. 26: 9609-9618, 2006) and imaged on a Nikon A1+ confocal microscope (Nikon, Tokyo, Japan). Cells were chosen at random by looking only at the tdTomato signal (561 nm), in order to avoid bias. At least three separate culture dates were used per experiment and three coverslips were transfected per condition each time. For these experiments, “n” refers to the total number of cells imaged. Five to 15 optical sections (0.5 μm) capturing the cell surface were obtained of single cells at 60× magnification (Schulien et al., J Physiol (Lond). 594: 2647-2659, 2016), creating a maximum-intensity projection (MAX-IP) of Kv2.1-GFP distribution. To analyze Kv2.1 distribution in the cerebral cortex of fixed brain slices, 51-54 image fields were obtained at 60× magnification across 18 sections from three fixed mouse brains per treatment (total of 6 animals). Image fields were captured by first focusing on an area of superficial cortex closest to the cover glass. Next, 24 optical sections (0.5 μm) were obtained moving deeper into the tissue in order to produce a 12 μm maximum-intensity projection for analysis of Kv2.1 distribution. Laser power, HV (gain), offset, pinhole size, and all camera parameters were kept identical between all samples in a given experiment. Nikon Instruments Software Advanced Research (NIS-Elements AR) was utilized to analyze GFP-tagged Kv2.1 channel cluster distribution. For live images of transfected neurons, object count parameters were customized to define a Kv2.1 cluster as an area of high intensity GFP fluorescence (compared to background), measuring 0.05 μm^2 or larger (Schulien et al., J Physiol (Lond). 594: 2647-2659, 2016). Kv2.1 cluster density was calculated by normalizing the number of Kv2.1 clusters counted to the somatic area of each neuron (#Kv2.1 clusters/μm^2). Due to high variability in GFP-Kv2.1 expression between individual neurons, intensity thresholding required cell-specific local-background subtraction. In each neuron analyzed, two populations on Kv2.1-GFP expression were first noted—(a) highly localized signals of clustered Kv2.1 channels, and (b) diffuse background staining that represents freely-dispersed, conducting Kv2.1 channels on the plasma membrane. A small region of interest (ROI) within region (b) was set as the background subtraction standard of the image, creating an optimal signal-to-noise ratio for clustered Kv2.1 channels. […]

[2] = biological target: T2, VAPA (Rattus norvegicus, UniProt Q9Z270); assay: Peptide spot array (far western) of binding to VAPA, cell-free; conditions: lysate of VAPA-transfected HEK293 cells (FIG. 11A)
T2 construct: pEGFP-N1-VAPA; 1-242 (Addgene #18874); host or cells: HEK293 cells; whole lysate at 1 mg/ml total protein overlaid on the peptide arrays
T2 sequence (Q9Z270 8-249): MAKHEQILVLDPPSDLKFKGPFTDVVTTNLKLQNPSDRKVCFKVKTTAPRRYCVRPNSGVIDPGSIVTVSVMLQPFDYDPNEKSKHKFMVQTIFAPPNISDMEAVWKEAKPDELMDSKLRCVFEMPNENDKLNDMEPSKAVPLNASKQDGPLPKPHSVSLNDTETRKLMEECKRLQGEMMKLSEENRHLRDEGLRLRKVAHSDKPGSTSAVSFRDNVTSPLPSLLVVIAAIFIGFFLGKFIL
Method: Standard 9-fluorenylmethoxy carbonyl chemistry was used to synthesize peptides and spot them onto Celluspots nitrocellulose disks prederivatized with a polyethylene glycerol spacer (Intavis), using the Respep peptide synthesizer. The peptides were spotted on 20 membranes fitted on microscope glass slides (Intavis) using an Intavis MultiPep robot. For hybridization and immunoblotting of arrays, Celluspots slides were washed in TBST (50 mM Tris-HCl, pH 7.4, 150 mM NaCl, 0.1% Tween 20) for 10 minutes, […] blocked for 1 hour at room temperature (RT) with gentle shaking in TBST containing 5% nonfat dry milk. Lysates from HEK293 cells transfected as before (Yeh et al., J Neurosci. 37: 5648-5658, 2017; Yeh et al., Proc Natl Acad Sci USA. 116: 15696-15607, 2019; Dustrude et al., Proc Natl Acad Sci USA. 113: E8443-E8452, 2016) with pEGFP-N1-VAPA; 1-242 (Addgene #18874) were made in 20 mM Tris, 50 mM NaCl, 2 mM MgCl2, 1% Tergitol, 0.5% sodium deoxycholate, 0.1% sodium dodecyl sulfate with protease (Cat #B14002, Bimake), phosphatase (Cat #B15002, Bimake) inhibitor cocktails and 5 U/ml of universal nuclease (Cat #88702, Thermofisher) added extemporaneously. The concentration of lysates was measured by BCA (Cat #23227, Thermofisher) and peptide arrays were incubated with 1 mg/ml of total protein overnight at 4° C. (Yeh et al., J Neurosci. 37: 5648-5658, 2017; Yeh et al., Proc Natl Acad Sci USA. 116: 15696-15607, 2019; Moutal et al., Pain. 158: 2203-2221, 2017). Peptide arrays were washed 3 times for 5 minutes at RT with TBST and incubated with the primary antibody anti-VAPA (RRID AB_2722707; UC Davis/NIH NeuroMab Facility) for 2 hours at RT with gentle shaking in TBST, 5% BSA. After washing with TBST, the membranes were incubated in secondary antibody (IRDye® 800CW goat anti-mouse IgG secondary antibody; RRID AB_621842; Li-Cor) for 45 minutes, washed 3 times for 5 minutes in TBST, and visualized by infrared fluorescence (Li-Cor). Four independent peptide spot arrays were used in this study. Fluorescence intensity was analyzed with Image studio (Li-Cor).
Kv2.1 and Kv2.2 channels are recruited to ER-PM junctions via C-terminal PRC-mediated interaction with vesicle-associated membrane protein (VAMP)-associated protein A/B (VAPA/B) (Kirmiz, et al., J Neurosci. 38: 7562-7584, 2018; Johnson et al., Proc Natl Acad Sci USA. 115: E7331-E7340, 2018; Johnson, et al., Channels (Austin). 13: 88-101, 2019). This process occurs at non-canonical FFAT binding motifs within the PRC domains of Kv2.1 and Kv2.2 (FIG. 7B), which are recruited to the FFAT binding domain on VAPA/B (Kirmiz, et al., J Neurosci. 38: 7562-7584, 2018; Johnson et al., Proc Natl Acad Sci USA. 115: E7331-E7340, 2018; Johnson, et al., Channels (Austin). 13: 88-101, 2019). […]

[3] = 2 hour treatment, mean±SEM (FIG. 11B)
[4] = 24 hour treatment, mean±SEM (FIG. 11C)

YGRKKRRQRRRDEEFAP [TAT-FFATSc, scramble control peptide of TAT-FFAT]
mean Kv2.1 surface cluster density [1, 3]: 0.14±0.02 #Kv2.1 clusters/μm^2 of neuronal soma
mean Kv2.1 surface cluster density [1, 4]: 0.20±0.01 #Kv2.1 clusters/μm^2 of neuronal soma

SFTSCAT [non-canonical FFAT motif of Kv2.2]
binding to VAPA in peptide spot array [2]: no binding

SFISCAT [non-canonical FFAT motif of Kv2.1]
binding to VAPA in peptide spot array [2]: no binding

EFFDAPE [positive control peptide, a canonical FFAT motif]
binding to VAPA in peptide spot array [2]: strong VAPA binding

SIDSFTS [DP-2, seven amino acid declustering peptide from Kv2.2 CT]
binding to VAPA in peptide spot array [2]: no binding

YGRKKRRQRRREFFDAPE [TAT-FFAT, TAT-linked derivative of the canonical FFAT motif]
mean Kv2.1 surface cluster density [1, 3]: 0.15±0.03 #Kv2.1 clusters/μm^2 of neuronal soma
mean Kv2.1 surface cluster density [1, 4]: 0.19±0.02 #Kv2.1 clusters/μm^2 of neuronal soma
